# Reference: patent publication US6348573B1, “Compositions and methods for identifying apoptosis signaling pathway inhibitors and activators” (The Regents of the University of Michigan, priority 1998, dated 2002)
# B1: CIDE-B: cell death-inducing DFF45-like effector B, mouse protein of 219 amino acids (protein, listed as Mus musculus)
# chain: MEYLSAFNPNGLLRSVSTVSSELSRRVWNSAPPPQRPFRVCDHKRTVRKGLTAASLQELLDKVLETLLLRGVLTLVLEEDGTAVDSEDFFQLLEDDTCLMVLEQGQSWSPKSGMLSYGLGREKPKHSKDIARITFDVYKQNPRDLFGSLNVKATFYGLYSMSCDFQGVGPKRVLRELLRGTSSQLQGLGHMLLGISSTLRHVVEGADRWQWHGQRHLHS
# B2: DFF45: 45 kDa subunit of the DNA fragmentation factor (protein, UniProt O00273 1-331, looked up)
# DNA fragmentation factor …: MEVTGDAGVPESGEIRTLKPCLLRRNYSREQHGVAASCLEDLRSKACDILAIDKSLTPVTLVLAEDGTIVDDDDYFLCLPSNTKFVALASNEKWAYNNSDGGTAWISQESFDVDETDSGAGLKWKNVARQLKEDLSSIILLSEEDLQMLVDAPCSDLAQELRQSCATVQRLQHTLQQVLDQREEVRQSKQLLQLYLQALEKEGSLLSKQEESKAAFGEEVDAVDTGISRETSSDVALASHILTALREKQAPELSLSSQDLELVTKEDPKALAVALNWDIKKTETVQEACERELALRLQQTQSLHSLRSISASKASPPGDLQNPKRARQDPT
# Columns and labels:
# SHEP cells = test: Apoptosis in SHEP cells; format: cell-based; conditions: data not shown
# 293T cells [1] = test: Apoptosis assay, CIDE transfection; format: cell-based, human; conditions: 293T cells
# Experimental: Apoptosis Assays, fluorescence staining of nuclear DNA and DNA fragmentation assay: 5×10^5 293T cells were co-transfected with 0.2 μg of pcDNA3-β-gal plus each expression plasmid in triplicate by the calcium phosphate method as reported [N. Inohara et al, “CLARP, a death effector domain-containing protein interacts with caspase-8 and regulates apoptosis,” Proc. Natl. Acad. Sci. USA 94:10717-10722 (1997a)].
# MCF7 were cotransfected with vector control or CIDE-A and β-galactosidase-expressing reporter construct by Lipofectamine (Gibco BRL) according to the manufacturer's instructions. In some experiments, 20 μM zVAD-fmk (benzyloxycarbonyl-Val-Ala-Asp-(OMe)-fluoromethylketone), zFA-fmk (benzyloxycarbonyl-Phe-Ala-(OMc)-fluoromethylketone) and zDEVD-fmk (benzyloxycarbonyl-Asp-Glu-Val-Asp-(OMe)-fluoromethylketone) were added into medium at 8 hr after transfection. zFA-fmk, zVAD-fmk and zDEVD-fmk were obtained from Enzyme Systems. At 24 hours after transfection, cells were fixed, stained for β-galactosidase as described [N. Inohara et al., “CLARP, a death effector domain-containing protein interacts with caspase-8 and regulates apoptosis,” Proc. Natl. Acad. Sci. USA 94:10717-10722 (1997a)] and assayed for morphological features of apoptosis. At least 300 hundred blue-staining cells were counted. Statistical significance was determined by one-way ANOVA followed by Student-Neuman-Keuls post-doc comparisons.
# (§1) Nuclear staining with acridine-orange was performed as described [N. Inohara et al., “harakiri, a novel regulator of cell death, encodes a protein that activates apoptosis and interacts selectively with survival-promoting proteins Bcl-2 and Bcl-XL.,” EMBO J. 16:1686-1694 (1997b)]. Genomic DNA was extracted and analyzed for DNA fragmentation as described [X. Liu et al., “Apaf-1, a human protein homologous to C. elegans CED-4, participates in cytochrome c-dependent activation of caspase-3,” Cell 90:405-413 (1997)].
# 293T cells [2] = test: DNA fragmentation assay; format: cell-based, human; conditions: co-expression
# Experimental: as §1
Molecule,induction of apoptosis in SHEP cells (SHEP cells),induction of apoptosis (killing) of 293T cells by expression (293T cells [1]),apoptosis induced by CLARP (293T cells [1]; co-expression),apoptosis induced by Fas (293T cells [1]; co-expression),apoptosis of the CIDE-A (108-199) mutant (293T cells [1]; co-expression),killing activity of CIDE-A (293T cells [1]; co-expression),killing activity of CIDE-B (293T cells [1]; co-expression),DNA fragmentation induced by CIDE-A (293T cells [2])
B1,induced apoptosis,induced significant killing of 293T cells in a dose dependent manner,,,,,,
B2,,did not induce apoptosis,inhibited,inhibited,not inhibited,inhibited significantly,inhibited significantly,inhibited
